Results as given in patent publication US20160208233A1 (Harvard, published 2016).
Non-standard residues stand in square brackets, D forms with d. No end group written: not given here. *: point of attachment. Dnp = O=[N+]([O-])c1ccc(*)c([N+](=O)[O-])c1; 2Abz = Nc1ccccc1C(=O)O

Experiments:
Abz-LPESGK(Dnp)-CONH2 [1] = biological target: T1, Abz-LPESGK(Dnp)-CONH2 (N-terminus assumed; SMILES CC(C)C[C@H](NC(=O)c1ccccc1N)C(=O)N1CCC[C@H]1C(=O)N[C@@H](CCC(=O)O)C(=O)N[C@@H](CO)C(=O)NCC(=O)N[C@@H](CCCCNc1ccc([N+](=O)[O-])cc1[N+](=O)[O-])C(N)=O); test: cell-based or functional assay
T1 peptide: [2Abz]LPESGK(Dnp)-NH2

Abz-LPETGK(Dnp)-CONH2 = biological target: T2, Abz-LPETGK(Dnp)-CONH2
T2 chain: LPETGK

Abz-LPEAGK(Dnp)-CONH2 = biological target: T3, Abz-LPEAGK(Dnp)-CONH2
T3 chain: LPEAGK

[2] = biological target: T4, human fetuin A, endogenous in human plasma, P02765
T4 chain: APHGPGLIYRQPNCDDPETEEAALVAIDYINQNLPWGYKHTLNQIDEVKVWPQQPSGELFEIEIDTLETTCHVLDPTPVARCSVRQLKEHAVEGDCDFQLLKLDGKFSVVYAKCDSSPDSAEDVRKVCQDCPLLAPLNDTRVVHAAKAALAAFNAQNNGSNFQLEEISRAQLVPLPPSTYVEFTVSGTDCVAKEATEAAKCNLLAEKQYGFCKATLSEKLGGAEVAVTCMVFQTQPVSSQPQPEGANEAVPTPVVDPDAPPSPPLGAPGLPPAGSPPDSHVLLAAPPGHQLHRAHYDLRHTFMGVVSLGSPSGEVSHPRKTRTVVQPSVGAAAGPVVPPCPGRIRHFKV

Gly-Gly-Gly-COOH = biological target: T5, Gly-Gly-Gly-COOH
T5 chain: GGG

Abz-LAETGK(Dnp)-CONH2 = biological target: T6, Abz-LAETGK(Dnp)-CONH2
T6 chain: LAETGK

Abz-LPESGK(Dnp)-CONH2 [3] = biological target: T7, Abz-LPESGK(Dnp)-CONH2
T7 chain: LPESGK

Abz-LPECGK(Dnp)-CONH2 = biological target: T8, Abz-LPECGK(Dnp)-CONH2
T8 chain: LPECGK

Abz-LSETGK(Dnp)-CONH2 = biological target: T9, Abz-LSETGK(Dnp)-CONH2
T9 chain: LSETGK

[4] = biological target: T10, eSrtA displayed on ICY200 yeast as a C-terminal Aga2p fusion (Staphylococcus aureus, UniProt Q2FV99 60-206); test: yeast-displayed eSrtA, 10 µM Btn-LAETGG against 100 nM to 1 mM LPETGG, cell biotinylation by flow cytometry
T10 construct: the whole entry is named here; also called Yeast displaying eSrtA; S. cerevisiae displaying eSrtA; not shown: Aga2p, yeast display anchor
T10 chain: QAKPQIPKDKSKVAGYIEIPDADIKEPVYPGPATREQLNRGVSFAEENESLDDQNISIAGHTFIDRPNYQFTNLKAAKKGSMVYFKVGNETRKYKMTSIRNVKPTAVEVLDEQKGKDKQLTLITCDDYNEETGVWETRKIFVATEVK

B1: evolved sortase A (eSrtA) (enzyme)
chain: QAKPQIPKDKSKVAGYIEIPDADIKEPVYPGPATREQLNRGVSFAEENESLDDQNISIAGHTFIDRPNYQFTNLKAAKKGSMVYFKVGNETRKYKMTSIRNVKPTAVEVLDEQKGKDKQLTLITCDDYNEETGVWETRKIFVATEVK
specificity (relative cat. Efficiency, fold), by the kcat/Km cells LPETG over LPESG (Abz-LPESGK(Dnp)-CONH2 [1]): 10.2 fold
Km (Abz-LPETGK(Dnp)-CONH2): 230 µM
Km, LxExG (Abz-LPETGK(Dnp)-CONH2): 208 µM
kcat/Km (Abz-LPETGK(Dnp)-CONH2): 23000 M⁻¹ s⁻¹
kcat/Km (Hz/M) (Abz-LPETGK(Dnp)-CONH2): 27100 Hz/M
specificity (relative cat. Efficiency, fold), LPETG over LAETG (Abz-LPETGK(Dnp)-CONH2): 123 fold
Km (Abz-LPEAGK(Dnp)-CONH2): 83.4 µM
kcat/Km (Abz-LPEAGK(Dnp)-CONH2): 8900 M⁻¹ s⁻¹
conjugation efficiency in human plasma, with supplemental calcium (densitometry) [2]: 0.6% by eSrtA in the presence supplemental calcium
fetuin A conjugation efficiency with 10 mM added CaCl2, against eSrtA(4S-9) [2]: only modest fetuin A conjugation efficiencies (90-fold lower than that of eSrtA(4S-9)) in the presence of 10 mM added CaCl2
processing of fetuin A in human plasma without supplemental calcium [2]: eSrtA showed no processing of fetuin A without supplemental calcium
Km, GGG (uM); with LPETG peptide (Gly-Gly-Gly-COOH): 2990 µM
Km,GGG (µM); listed substrate LAETG (Gly-Gly-Gly-COOH): 807 µM
Km,GGG (µM); listed substrate LPEAG (Gly-Gly-Gly-COOH): 48400 µM
Km,GGG (µM); listed substrate LPECG (Gly-Gly-Gly-COOH): 57000 µM
Km,GGG (µM); listed substrate LPESG (Gly-Gly-Gly-COOH): 22000 µM
Km,GGG (µM); listed substrate LPETG (Gly-Gly-Gly-COOH): 1620 µM
Km,GGG (µM); listed substrate LSETG (Gly-Gly-Gly-COOH): 337 µM
Km (Abz-LAETGK(Dnp)-CONH2): 6070 µM
Km, LxExG (Abz-LAETGK(Dnp)-CONH2): 6160 µM
Rel. Activity (fold below the enzyme's best substrate, LPETG) (Abz-LAETGK(Dnp)-CONH2): 103 fold
kcat/Km (Abz-LAETGK(Dnp)-CONH2): 223 M⁻¹ s⁻¹
kcat/Km (Hz/M) (Abz-LAETGK(Dnp)-CONH2): 221 Hz/M
Km (Abz-LPESGK(Dnp)-CONH2 [3]): 318 µM
Km, LxExG (Abz-LPESGK(Dnp)-CONH2 [3]): 672 µM
Rel. Activity (fold below the enzyme's best substrate, LPETG) (Abz-LPESGK(Dnp)-CONH2 [3]): 4.9 fold
kcat/Km (Abz-LPESGK(Dnp)-CONH2 [3]): 4650 M⁻¹ s⁻¹
kcat/Km (Hz/M) (Abz-LPESGK(Dnp)-CONH2 [3]): 2650 Hz/M
Km (Abz-LPECGK(Dnp)-CONH2): 72.5 µM
kcat/Km (Abz-LPECGK(Dnp)-CONH2): 48800 M⁻¹ s⁻¹
Km (Abz-LSETGK(Dnp)-CONH2): 533 µM
kcat/Km (Abz-LSETGK(Dnp)-CONH2): 192 M⁻¹ s⁻¹

LPETGG [non-biotinylated LPETGG peptide]
Ki [4]: < 100 µM
